Experiment [1] has as its target T1, recombinant human Brevican (human, UniProt Q96GW7 23-911, limits assumed).
T1 sequence: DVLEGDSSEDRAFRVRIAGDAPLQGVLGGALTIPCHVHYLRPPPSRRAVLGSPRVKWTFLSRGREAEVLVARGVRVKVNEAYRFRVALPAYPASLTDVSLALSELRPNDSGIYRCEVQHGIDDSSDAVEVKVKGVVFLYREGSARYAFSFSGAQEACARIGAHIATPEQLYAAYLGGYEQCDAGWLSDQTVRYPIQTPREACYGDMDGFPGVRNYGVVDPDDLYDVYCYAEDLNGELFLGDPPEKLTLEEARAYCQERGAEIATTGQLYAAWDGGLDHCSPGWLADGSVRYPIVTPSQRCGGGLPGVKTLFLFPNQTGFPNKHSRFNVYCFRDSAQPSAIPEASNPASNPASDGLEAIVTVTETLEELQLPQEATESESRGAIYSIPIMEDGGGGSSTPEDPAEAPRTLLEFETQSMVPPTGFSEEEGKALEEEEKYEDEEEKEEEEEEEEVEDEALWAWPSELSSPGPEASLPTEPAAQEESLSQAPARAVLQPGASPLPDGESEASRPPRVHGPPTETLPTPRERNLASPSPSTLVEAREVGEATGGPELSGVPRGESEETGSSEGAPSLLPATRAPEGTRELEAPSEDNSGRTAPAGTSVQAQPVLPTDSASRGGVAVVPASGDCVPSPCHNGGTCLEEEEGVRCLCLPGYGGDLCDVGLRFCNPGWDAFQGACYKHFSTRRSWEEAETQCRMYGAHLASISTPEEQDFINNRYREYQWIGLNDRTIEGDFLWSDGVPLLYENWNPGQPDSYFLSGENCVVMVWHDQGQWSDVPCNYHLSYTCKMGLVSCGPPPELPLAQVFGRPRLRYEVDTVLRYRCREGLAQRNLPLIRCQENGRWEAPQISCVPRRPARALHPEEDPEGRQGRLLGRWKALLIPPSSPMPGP
Briefly: ELISA on recombinant human Brevican. A general note: In an ELISA, binding on a coated surface is turned into a signal by an enzyme label.

Experiment [2] deals with recombinant human Neurocan (human, UniProt O14594 23-1321, limits assumed). Briefly: ELISA on recombinant human Neurocan.
Experiment [3] addresses T2, recombinant rat Aggrecan G1-IGD-G2 (rat, UniProt P07897 20-684, limits assumed).
T2 construct: also called Rat G1-IGD-G2
Briefly: SPR (ProteOn), off-rate only indicative.
Experimental: (§1) SPR (ProteOn) experiments were carried out for the “monovalent” Aggrecan-ALB26 formats in order to determine off-rates.

The target of experiment [4] is T3, recombinant dog Aggrecan G1-IGD-G2 (dog, UniProt Q28343 20-693, limits assumed).
T3 construct: also called Dog G1-IGD-G2
Briefly: SPR (ProteOn), off-rate only indicative.
Experimental: as §1

In experiment [5] the target is T4, recombinant bovine Aggrecan G1-IGD-G2 (bovine, UniProt P13608 20-684, limits assumed).
T4 construct: also called Bov G1-IGD-G2; Boy G1-IGD-G2
Briefly: SPR (ProteOn), off-rate only indicative.
Experimental: as §1

Experiment [6] has as its target T5, recombinant human Aggrecan G1-IGD-G2 (human, UniProt P16112 20-676).
T5 construct: Only the G1-IGD-G2 region was used (R&D Systems 1220-PG is named for the immunogen); also called Hu G1-IGD-G2
Briefly: SPR (ProteOn), off-rate only indicative.
Experimental: as §1

Experiment [7] deals with T2, recombinant rat Aggrecan G1-IGD-G2. Briefly: ELISA on recombinant G1-IGD-G2.
Experiment [8] has as its target T3, recombinant dog Aggrecan G1-IGD-G2. Briefly: ELISA on recombinant G1-IGD-G2.
Experiment [9] addresses T4, recombinant bovine Aggrecan G1-IGD-G2. Briefly: ELISA on recombinant G1-IGD-G2.
For experiment [10], the target named is T5, recombinant human Aggrecan G1-IGD-G2. Briefly: ELISA on recombinant G1-IGD-G2.

B1: C01010097 (608A05-ALB26) (VHH, not shown: small tags and cut ends)
VHH: DVQLVESGGGLVQPGGSLRLSCAASGRTFSTYTMGWFRQAPGKEREFVAAISWSGGTTYYADSVKGRFTISRDNSKNTVYLQMNSLRPEDTAVYYCAARPRYYYYSLYSYDYWGQGTLVTVSS
Take B1: the binding result in experiment [1] and in experiment [2] was “no binding” throughout. Also, the koff (in general, the rate constant with which the complex falls apart) in [3] amounted to 0.0015 s⁻¹; in [4], 0.083 s⁻¹; in [5], 0.0027 s⁻¹; in experiment [6], 0.0025 s⁻¹. Besides, the EC50 (as a rule, the concentration needed to bring the measured effect to its halfway point) in [7] was found to be 0.33 nM; in experiment [8], 25 nM; in experiment [9], 0.28 nM; in [10], 0.24 nM.

B2: C01010054 (114F08-ALB26) (VHH, not shown: small tags and cut ends)
VHH: EVQLVESGGGLVQAGGSLRLSCAASGSTFIINVVRWYRRTPGKQRELVATISSGGNANYVDSVRGRFSISRDGAKNAVDLQMNGLKPEDTAVYYCNVPTTHYGGVYYGPYWGQGTQVTVSS
notes: also called C010100054
For the molecule B2, the binding result in [1] and in experiment [2] was “no binding” in each case. Further, the off-rate (koff) in experiment [3] came out at 0.65 s⁻¹; in experiment [4], 0.011 s⁻¹; in experiment [5], 0.47 s⁻¹; in experiment [6], 0.013 s⁻¹. The EC50 in experiment [7] is 7.6 nM; in experiment [8], 3 nM; in experiment [9] it was 5.6 nM; in experiment [10], 6 nM.

B3: C01010094 (604F02-ALB26) (VHH, not shown: small tags and cut ends)
VHH: DVQLVESGGGLVQPGGSLRLSCAASGRTFSSYTMGWFRQAPGKEREFVAAISWSGGRTYYADSVKGRFTISRDNSKNTVYLQMNSLRPEDTAVYYCAAYRRRRASSNRGLWDYWGQGTLVTVSS
notes: also called C010100094
For the molecule B3, the binding result in [1] and in experiment [2] was “no binding” in each case. Moreover, the koff in [3] stood at 0.26 s⁻¹; in experiment [4], 0.12 s⁻¹; in experiment [5], 0.26 s⁻¹; in [6] it was 0.17 s⁻¹. Moreover, the EC50 in [7] amounted to 5.9 nM; in experiment [8], 2.6 nM; in experiment [9], 1.6 nM; in [10], 1.2 nM.

B4: C01010060 (606A07-ALB26) (VHH, not shown: small tags and cut ends)
VHH: DVQLVESGGGLVQPGGSLRLSCVASGRTFSIYGMGWFRQAPGKEREFVAAINGGSRTYYADSVKGRFTISRDNSKNTVYLQMNSLRPEDTAVYYCAADRSGYGTSLDWWYDYWGQGTLVTVSS
With B4, in experiment [1], the binding result was “no binding”. In addition, the koff in experiment [3] turned out to be 0.021 s⁻¹; in experiment [4], 0.038 s⁻¹; in experiment [5], 0.027 s⁻¹; in experiment [6], 0.021 s⁻¹. Also, the EC50 in [7] came to 8.4 nM; in [8], 6.9 nM; in experiment [10], 12 nM.

B5: C01010113 (ALB26-606A07-606A07) (VHH, not shown: small tags and cut ends)
VHH 1: DVQLVESGGGLVQPGGSLRLSCVASGRTFSIYGMGWFRQAPGKEREFVAAINGGSRTYYADSVKGRFTISRDNSKNTVYLQMNSLRPEDTAVYYCAADRSGYGTSLDWWYDYWGQGTLVTVSS
VHH 2: DVQLVESGGGLVQPGGSLRLSCVASGRTFSIYGMGWFRQAPGKEREFVAAINGGSRTYYADSVKGRFTISRDNSKNTVYLQMNSLRPEDTAVYYCAADRSGYGTSLDWWYDYWGQGTLVTVSS
notes: also called AL326-606A07-606A07
Consider B5, for which the concentration for a half-maximal effect (EC50) is 0.87 nM in experiment [2], 0.12 nM in experiment [7], 3 nM in experiment [8] and 0.67 nM in [10].

B6: C01010046 (601E08-ALB26) (VHH, not shown: small tags and cut ends)
VHH: DVQLVESGGGLVQPGGSLRLSCTASGRTFSSYAVGWFRQAPGKEREFVAAISRSGRSTYYADSVKGRFTISRDNSKNTVYLQMNSLRPEDTAVYYCAAGLSYYSPHAYYDYWGQGTLVTVSS
B6: the binding result in experiment [1] and in [2] was “no binding” each time. The koff in [3] came out at 0.00025 s⁻¹; in experiment [4] it was 0.0071 s⁻¹; in experiment [5], 0.0013 s⁻¹; in [6], 0.0034 s⁻¹. Besides, the EC50 was found to be 0.32 nM in [7], 0.61 nM in experiment [8], 1.2 nM in [9] and 5.1 nM in experiment [10].

Values taken from patent US20200140532A1 (Ablynx, published 2020).
